Assay results: patent US20160272707A1 (COMPUGEN, published 2016)
Read-outs that look alike come from different tables or passages of the source.

T1: mouse VSTM5 (SEQ ID NO:11) expressed on HEK-293T cells (mouse, UniProt Q9D806 28-199)
T1 construct: also called mouse VSTM5 untagged
T1 sequence: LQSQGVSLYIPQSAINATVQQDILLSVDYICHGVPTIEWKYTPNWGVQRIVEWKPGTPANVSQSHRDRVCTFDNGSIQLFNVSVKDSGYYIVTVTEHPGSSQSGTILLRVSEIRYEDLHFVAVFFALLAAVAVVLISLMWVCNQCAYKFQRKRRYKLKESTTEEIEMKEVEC

T2: human VSTM5 (SEQ ID NO:132) expressed on HEK-293T cells (human, UniProt A8MXK1 29-200)
T2 construct: For the western blot, whole cell extracts were used; no signal peptide limits are stated; also called human VSTM5 untagged; HEK293T recombinant cells expressing human VSTM5
T2 sequence: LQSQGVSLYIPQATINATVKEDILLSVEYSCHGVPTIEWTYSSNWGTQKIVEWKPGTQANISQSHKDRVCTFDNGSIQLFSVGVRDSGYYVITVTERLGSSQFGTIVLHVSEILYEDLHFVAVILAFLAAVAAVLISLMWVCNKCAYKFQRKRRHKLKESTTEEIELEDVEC

T3: VSTM5 on human peripheral blood leukocytes (Homo sapiens, UniProt A8MXK1)
T3 construct: full-length, cell surface, endogenous; also called endogenous human VSTM5
T3 sequence (membrane protein, looked up): T2 sequence

T4: VSTM5 monomer (UniProt A8MXK1 29-147, limits assumed)
T4 construct: also called monomeric VSTM5 antigen; VSTM5 antigen
T4 sequence (looked up): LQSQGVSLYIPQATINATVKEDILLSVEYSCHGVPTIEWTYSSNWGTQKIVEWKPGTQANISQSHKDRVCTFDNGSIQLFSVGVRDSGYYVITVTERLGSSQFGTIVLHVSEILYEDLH

B1: 53-01.B11 (antibody, V domains shown)
VH: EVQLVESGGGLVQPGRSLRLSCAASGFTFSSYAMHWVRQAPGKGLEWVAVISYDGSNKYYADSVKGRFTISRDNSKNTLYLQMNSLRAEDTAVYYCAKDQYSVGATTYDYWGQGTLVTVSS
VL: QPVLTQSSSASASLGASVKLTCSLSSGHSSYAIAWHQQQPEKGPRYLMKLNSDGSHSKGDGIPDRFSGSSSGAERYLTISSLQSEDEADYYCQTWGSGIQVFGGGTKLTVLG
notes: also called S53-01-B11; S53-01.B11
B2: 47-01.D05 (antibody, V domains shown)
VH: QITLKESGPTLVKPTQTLTLTCTFSGFSLSTSGVGVGWIRQPPGKALEWLALIYWDDDKRYSPSLKSRLTITKDTSKNQVVLTMTNMDPVDTATYYCAHSGSVGYALYFDYWGQGTLVTVSS
VL: QAVLTQPPSSSASPGESARLTCTLPSDINVRYYNIYWYQQKPGSPPRYLLYYQSDSHKGRGSGVPSRFSGSKDTSANTGILLISGLQSEDEADYYCMIWASNGSGVLGGGTQLTVLG
B3: 50-01.D01 (antibody, V domains shown)
VH: QVQLVESGGGVVQPGRSRRLSCAASGFAFRNYGMHWVRQAPGKGLEWVAFISQNGGKKYYADSVTGRFTVSRDNSKNTLYLQINSLTTDDTAVFYCARSGSGSWGYSDFPGPFDHWGQGSLVTVSS
VL: EIVLTQSPGTLSLSPGERATLSCRASQNIFISFLAWYQQKPGQAPRLLLYGASNRATGIPDRFSGSGSGTDFTLTISRLEPEDFAVYYCQQYGSSPLTFGGGTKVEIKR
notes: also called 50-01.001
B4: 52-01.A07 (antibody, V domains shown)
VH: EVQLVESGGGLVQPGRSLRLSCAASGFTFSSYAMHWVRQAPGKGLEWVAVISYDGSNKYYADSVKGRFTISRDNSKNTLYLQMNSLRAEDTAVYYCASKRELHSFDYWGQGTLVTVSS
VL: DVVMTQSPLSLPVTPGEPASISCRSSQSLLQSNGHNYLNWYLQKPGQSPQVLIYLASNRASGVPDRFSGSGSGTDFTLKISRVEAEDVGIYYCMQGLQIPLTFGGGTKVEIKR
B5: 50-01.F03 (antibody, V domains shown)
VH: EVQLVEIGGGLIQPGRSLRLSCAASGFTFSSYAMHWVRQAPGKGLEWVAVISYDGSKKYYADSVKGRFTISRDNSKNTVHLQMNSLRVEDTAVYYCALLSRPHYGLDVWGQGTTVTVSS
VL: QSVLTQPPSVSAAPGQKVTISCSGSRSNVGGNFLSWYQHVPGTPPQLLIYDNYKRPSEIPDRFSGSKSGTSATLDITGLQTGDEADYYCGTWDSSLSSWVFGGGTQLTVLG
B6: 50-01.A04 (antibody, V domains shown)
VH: QVQLVQSGAEVKKPGESLKISCKGSGYDFNNYWIGWVRQTPEKGLEWMGIVYPGDHPGDYHIRYGPSFQGQVTISADRSITTAYLQWRNLKASDTAMYYCARLGSSKDLDYWGQGTLVTVSS
VL: EIVLTQSPATLSLSPGERATLSCRASQSVSGHLDWYQQKPGQSPRLLIYDASNRATGIPARFSGSGSGTDFSLTISSLEPEDFAVYYCQHRSNWPWTFGQGTKVEIKR

Legend:
[1] = target: T5, human VSTM5-EGFP (SEQ ID NO:133) expressed on HEK-293 cells (human); assay: FACS, IgG1 at 22 nM on 293-huVSTM5 (VSTM5-EGFP) cells; grade from ratio to 293-MT control cells (850-2000)
T5 construct: Full-length human VSTM5 fused at its C-terminus to EGFP; also called VSTM5_GFP

[2] = target: T5, human VSTM5-EGFP (SEQ ID NO:133) …; assay: FACS titration of the human IgG1 on 293-huVSTM5 cells, 293-MT control cells as open squares; y axis MFI (anti-Human A647)
[3] = target: T1, mouse VSTM5 (SEQ ID NO:11) expressed on …; assay: FACS, IgG1 at 22 nM on 293-muVSTM5 cells; grade from ratio to 293-MT control cells (850-2000)
[4] = target: T2, human VSTM5 (SEQ ID NO:132) expressed …; assay: flow cytometry on HEK293T cells expressing untagged human VSTM5; antibody at 1 nM (0.15 ug/ml), PE goat anti-human secondary 1:200
Excerpt: To verify the cell-surface expression of human VSTM5 in HEK293T recombinant cells (FIG. 8C), cells expressing the protein were stained with monoclonal VSTM5 antibody (S53-01-B11, described in Example 12 and 13 herein) and appropriate Isotype control followed by Goat a human PE conjugated Ab (Cat#
Non expressing cell line (HEK293T_pIRESpuro3) was stained under the same conditions and used for a negative control.

[5] = target: T3, VSTM5 on human peripheral blood …; assay: FACS, AF647 conjugated antibody on red-cell-lysed human peripheral blood of 3 donors, Fc receptors blocked with human IgG, against Synagis AF647
Method: Human peripheral blood was collected from 3 healthy donors. Red blood cells were lysed with RBC Lysis Buffer (eBiosciences Cat#00-4333-57) according to the manufacturer's protocol. Cells were incubated with 400 ug/ml human IgG (Jackson Immunoresearch #009-000-003) for 20 min on ice to block Fc receptors and then stained with cocktails consisting of Synagis® AF647, and anti-VSTM5 antibodies disclosed in Example 12, i.e., anti-VSTM5 AF647 (clone 44-2.E06 or 53-01.B11), anti-CD11b PE (Biolegend Cat#301305), anti-CD45 PerCp Cy5.5 (Biolegend #304207), anti-CD14 FITC (Biolegend cat#352610), or anti-CD41 PE (Biolegend Cat#303705) for 30 min on ice. All AF647 antibodies were conjugated at Compugen using Alexa Fluor® 647 Antibody Labeling Kit (Life Technologies Cat# A-20186) according to the manufacturer's protocol. Cells were washed twice with FACS Buffer (1% BSA, 0.1% Sodium Azide, PBS) and acquired on Intellicyte FACS machine. Data was analyzed by FlowJo and cell subsets defined as below: Monocytes: CD14⁺CD11b⁺, Neutrophils: CD11b⁺CD14^low, Lymphocytes FSC^lowSSC^lo, Eosinophils SSC^hi, platelets: CD45⁻CD41⁺. Staining of anti-VSTM5 antibodies to these cells was compared to staining with Synagis.

[6] = target: T1, mouse VSTM5 (SEQ ID NO:11) expressed on …; assay: FACS titration of the human IgG1 on 293-muVSTM5 cells, panel 'Ab binding vs. mouse VSTM5'; y axis MFI (anti-Human A647)
[7] = target: T6, VSTM5-ECD-Ig H:H (human VSTM5 ECD fused to human IgG1 Fc, SEQ ID NO:130) (human); assay: FACS of tosyl-activated beads coated with anti-CD3 and 0 to 320 ug/ml VSTM5-ECD-Ig, stained with Alexa 647 conjugated 53-01.B11
T6 construct: also called VSTM5-ECD-Ig fusion protein; VSTM5HH
Method: Tosyl activated beads (Invitrogen, Cat#14013) at 500×10⁶/ml were coated with anti-CD3 mAb and Fc fusion proteins in a two-step protocol: with 50 ug/ml human anti-CD3 clone UTCH1 (R&D systems, Cat# mab 100) in sodium phosphate buffer at 37° C. overnight, followed with 0-320 ug/ml of VSTM5-ECD-Ig fusion protein (human ECD of VSTM5 fused with Fc of human IgG1) for another overnight incubation at 37° C. In the second step, control human Fc was added together with Fc fusion protein so that the total amount of protein is 160 ug/ml (Bioxcell, Cat# BE0096) for the 0, 20, 40, 80 and 160 ug/ml coating condition (except for the 320 ug/ml coating condition).
The amount of anti-CD3 antibody bound to the beads was analyzed using goat anti-mouse 647 (Jackson ImmunoResearch, Cat#115-606-146).

[8] = target: T1, mouse VSTM5 (SEQ ID NO:11) expressed on …; assay: FACS titration on 293-muVSTM5 cells, panel 'Ab binding vs. mouse VSTM5'
VSTM5 monomer [9] = target: T4, VSTM5 monomer; assay: SPR, VSTM5 monomer binding to the IgG (equilibrium binding constant)
VSTM5 monomer [10] = target: T4, VSTM5 monomer; assay: SPR, VSTM5 monomer binding to the IgG
[11] = target: T5, human VSTM5-EGFP (SEQ ID NO:133) …; assay: FACS titration of the human IgG1 on 293-huVSTM5 cells, 293-MT control cells as open squares; y axis MFI (anti-Human A647); remark: listed apart in the source
[12] = target: T5, human VSTM5-EGFP (SEQ ID NO:133) …; assay: FACS, IgG1 at 22 nM on 293-huVSTM5 (VSTM5-EGFP) cells; grade from ratio to 293-MT control cells (400-850)
Method: Empty vector control cells and human VSTM5 EGFP suspension 293 cells were pelleted and stained in 50 μl of the indicated concentrations of anti-VSTM5 antibodies or isotype controls in FACS buffer at 4° C. for 60 mins. Cells were washed once in FACS buffer, re-suspended in 50 μl of 1:250 dilution of biotinylated anti-human IgG (Jackson cat#109-065-097) for 30 mins at 4° C. Cells were washed in FACS buffer, re-suspended in 50 μl of 1:100 dilution of SA-PE (Jackson cat#016-110-084) for 30 mins. Cells were washed twice and re-suspended in a final volume of 100 μl of FACS buffer. Samples were read on the Intellicyt HTFC. Data was analyzed by FCS Express (DeNovo, Calif., USA), exported to Excel (Microsoft, WA, USA) and plotted in GraphPad Prism® (GraphPad Software, Inc., CA, USA).

[13] = target: T5, human VSTM5-EGFP (SEQ ID NO:133) …; assay: FACS, IgG1 at 22 nM on 293-huVSTM5 (VSTM5-EGFP) cells; grade from ratio to 293-MT control cells (<50)
[14] = target: T5, human VSTM5-EGFP (SEQ ID NO:133) …; assay: FACS, IgG1 at 22 nM on 293-huVSTM5 (VSTM5-EGFP) cells; grade from ratio to 293-MT control cells (50-400)

Binder	EC50 (read off the curve) [2]	binding result [8]	Kd (VSTM5 monomer [9])	Kd (VSTM5 monomer [10])	EC50 (read off the curve) [11]	ratio of 293-huVSTM5 cell binding / 293-MT control cell binding (FACS) at 22 nM mAb [12]	other results
B1	~3 nM						ratio of 293-huVSTM5 cell binding / 293-MT control cell binding (FACS) at 22 nM mAb [1]: 850 to 2000 ratio; ratio of 293-muVSTM5 cell binding / 293-MT control cell binding (FACS) at 22 nM mAb [3]: 850 to 2000 ratio; binding result [4]: binds; binding result [5]: binds; EC50 (read off the curve) [6]: ~2 nM; binding result [7]: binds
B2		no binding	60.7 nM	60.7 nM	~2 nM	400 to 850 ratio	
B3	~0.6 nM	no binding				400 to 850 ratio	
B4		no binding					ratio of 293-huVSTM5 cell binding / 293-MT control cell binding (FACS) at 22 nM mAb [13]: < 50 ratio
B5		no binding			~0.7 nM	400 to 850 ratio	
B6		no binding	52.8 nM	52.8 nM			ratio of 293-huVSTM5 cell binding / 293-MT control cell binding (FACS) at 22 nM mAb [14]: 50 to 400 ratio
